Substrate: CC(C)=CCC/C(C)=C/COP(=O)(O)OP(=O)(O)O
Assay: purified protein
Details: Mn2+

B1: (+)-limonene synthase [(+)-LS] (Citrus sinensis) (protein)
chain: RRSANYQPSIWDHDFLQSLNSNYTDETYKRRAEELKGKVKTAIKDVTEPLDQLELIDNLQRLGLAYHFEPEIRNILRNIHNHNKDYNWRKENLYATSLEFRLLRQHGYPVSQEVFSGFKDDKVGFICDDFKGILSLHEASYYSLEGESIMEEAWQFTSKHLKEMMITSNSKEEDVFVAEQAKRALELPLHWKAPMLEARWFIHVYEKREDKNHLLLELAKLEFNTLQAIYQEELKDISGWWKDTGLGEKLSFARNRLVASFLWSMGIAFEPQFAYCRRVLTISIALITVIDDIYDVYGTLDELEIFTDAVARWDINYALKHLPGYMKMCFLALYNFVNEFAYYVLKQQDFDMLLSIKHAWLGLIQAYLVEAKWYHSKYTPKLEEYLENGLVSITGPLIITISYLSGTNPIIKKELEFLESNPDIVHWSSKIFRLQDDLGTSSDEIQRGDVPKSIQCYMHETGASEEVAREHIKDMMRQMWKKVNAYTADKDSPLTRTTAEFLLNLVRMSHFMYLHGDGHGVQNQETIDVGFTLLFQPIPLEDKDMAFTASPGTKG
- Km: 13.1 ± 0.6 µM

Source: publication PMC5642273
